This assay has as its target Gallus gallus TRPV4 isolated ankyrin repeat domain (residues 135-382) (Gallus gallus, UniProt A0A1D5PXA5 135-382). The assay can be described thus: cross-linking.

Gallus gallus TRPV4 isolated ankyrin repeat domain (residues 135-382), sequence (A0A1D5PXA5 135-382): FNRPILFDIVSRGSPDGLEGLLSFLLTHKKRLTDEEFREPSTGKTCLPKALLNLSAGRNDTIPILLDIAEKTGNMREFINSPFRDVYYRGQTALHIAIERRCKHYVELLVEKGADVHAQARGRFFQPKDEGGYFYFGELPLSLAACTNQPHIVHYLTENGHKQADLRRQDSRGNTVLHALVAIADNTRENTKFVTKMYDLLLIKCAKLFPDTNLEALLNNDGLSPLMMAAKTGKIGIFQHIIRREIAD

B1: Gallus gallus TRPV4 isolated intrinsically disordered region (residues 2-134) (domain or fragment, UniProt A0A1D5PXA5 2-134, looked up)
chain: ADPEDPRDAGDVLGDDSFPLSSLANLFEVEDTPSPAEPSRGPPGAVDGKQNLRMKFHGAFRKGPPKPMELLESTIYESSVVPAPKKAPMDSLFDYGTYRQHPSENKRWRRRVVEKPVAGTKGPAPNPPPILKV
For the molecule B1, the binding result was “binds”.

(Values after paper doi:10.1101/2022.12.21.521430 (bioRxiv, 2022).)
